{"source": "paper PMC9747160", "origin": "cited, not measured here", "target": "APOBEC3B CTD (Homo sapiens) (UniProt Q9UH17)", "sequence (Q9UH17 187-382)": "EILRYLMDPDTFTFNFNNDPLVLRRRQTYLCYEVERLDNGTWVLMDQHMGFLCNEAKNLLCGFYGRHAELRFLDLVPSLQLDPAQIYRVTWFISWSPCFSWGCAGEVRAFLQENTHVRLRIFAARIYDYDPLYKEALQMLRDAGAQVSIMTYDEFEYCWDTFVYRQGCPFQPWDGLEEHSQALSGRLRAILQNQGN", "test": "BLI"}
{"substance": "BORF2 (from UniProt P03190)", "values": [{"measurement": "Kd", "value": 1, "unit": "nM"}]}
